Laboratory results reported in paper PMC9896928.

Molecular target: glutathione transferase (GST) tag-fused cGAS
Assay: SEC + other: fluorescence correlation spectroscopy

glutathione transferase (GST) tag-fused cGAS (enzyme)
stoichiometry N: 2
